Results reported in patent publication EP3418383A1, “MODIFIED L-ASPARAGINASE” (XL-protein GmbH, priority 2017, dated 2018).

Key:
[1] = L-asparaginase aminohydrolase activity, Nessler reagent assay (Example 1); type: biochemical; settings: for Enzyme activity compared to the equally assayed non-modified Crisantaspase: Nessler assay of Example 1
Procedure: The modified proteins were purified by anion exchange chromatography (AEX) on a MonoQ HR5/5 column (GE Healthcare) using 25 mM Na-borate pH 9.0, 1 mM EDTA as running buffer and a NaCl concentration gradient from 0 to 1 M to elute the proteins. L-asparaginase aminohydrolase activity of each Crisantaspase modified protein was determined by reaction of ammonia that is liberated via L-asparagine enzymatic activity with the Nessler reagent. Briefly, 50 µL of enzyme solution was mixed with 20 mM of L-asparagine in a 100 mM sodium borate buffer pH 8.6 containing 0.015 % (w/v) bovine serum albumin and incubated for 15 min at 37 °C. The reaction was stopped by addition of 200 µL of Nessler reagent (Sigma-Aldrich). Absorbance of this solution was measured at 450 nm. The activity was calculated from a calibration curve that was obtained from ammonium sulphate as reference. Table 2: Enzymatic activities of Crisantaspase conjugated with Pga-P/A(20)-Ahx peptide in different amounts

[2] = L-asparaginase enzyme activity, Nessler endpoint assay, specific activity (Example 8); type: biochemical; settings: Crisantaspase expression system E. coli; for Nessler (Average): average of plates 1-3; for Nessler Plate 1 / Nessler Plate 2 / Nessler Plate 3: specific activity
Procedure: PASylated L-asparaginase enzyme activity was determined by catalysis of the conversion of L-asparagine into L-aspartic acid. This reaction liberates one mole of ammonia per mole of converted L-asparagine. The released ammonia is detected using Nessler's reagent. In the presence of Nessler's reagent the ammonia will form a watersoluble yellow complex that can be quantified by absorbance measurement at 450 nm (Mashburn et al. (1963) Biochem. Biophys. Res. Commun. 12, 50). One unit of L-asparaginase enzyme activity (International Unit or IU) is defined as the amount of enzyme that catalyzes the conversion of one µmol of L-asparagine per minute. The specific activity of the samples (IU/mg) is determined by dividing the value of L-asparaginase activity expressed in IU/mL by the protein concentration expressed in mg/mL. The mass of the protein monomer with the PASylated sequence was measured.
The measurement of L-asparaginase activity is based on an endpoint assay in which the sample is diluted to a series of final enzyme concentrations which are then incubated at 37°C under saturating L-asparagine concentration for 15 minutes. The reaction is stopped by addition of Nessler's reagent and the amount of ammonia produced by the reaction is extrapolated from a calibration curve constructed from known quantities of ammonium sulfate used as standard. A plot of enzyme concentration versus ammonia is then created for each sample and the slope of the curve divided by the reaction time to obtain the specific activity in IU/mg. Specific activity is reported as IU/mg and is reported to the nearest whole number.

[3] = Analytical gel filtration (SEC), hydrodynamic volume / apparent molecular size; type: physicochemical; settings: tetramer, Superdex S200 10/300 GL, PBS, 1 mg/ml
Excerpt: In order to avoid polymerization of the peptides upon chemical activation of the C-terminus, the N-terminus was protected with pyroglutamyl (Pga) residue. Aminohexanoic acid (Ahx) was incorporated at the C-terminus of the peptides to serve as linker. […] The hydroxybenzotriazol (HOBt) active ester of the peptide is subsequently used to derivatize the amino groups (ε-amino groups of lysine residues or α-amino group of N-terminus) of Crisantaspase with the P/A peptide through formation of peptide or isopeptide bonds, while free HOBt is released. This coupling step is performed in aqueous solution (e.g. PBS buffer) with a content of organic solvent ≤ 30 %. […] The number of coupled P/A peptides can be determined by counting the bands in that ladder starting from the unconjugated Crisantaspase as marked on the right. […] Separation of remaining uncoupled peptide and other non-proteinous byproducts of the chemical conjugation devoid of UV absorption at 280 nm was monitored by the 225 nm UV trace. […]

[4] = Pharmacokinetics, plasma asparaginase activity after single IV bolus dose; type: in vivo; settings: single IV bolus 25 IU/kg body weight, male CD-1 mice, non-compartmental
Procedure: The pharmacokinetic profile of E. coli expressed recombinant crisantaspase as a PASylated fusion protein (PA-200) or chemically conjugated to PA-peptides (PA-20) was characterized following administration of a single intravenous bolus dose to CD-1 mice. The CD-1 mice is a model for a healthy mouse.
All animals received a single intravenous (IV) bolus via the lateral tail vein (10 mL/kg) based on the body weight taken prior to dosing. Individual doses were calculated based upon the most recent individual body weights to provide the proper dose. The first day of dosing was based on study day 0 body weights.
PASylated asparaginase was administered as a single IV dose of 25 IU/kg body weight to mice. […] Asparaginase activity in mouse plasma was measured using a qualified biochemical assay as described in the previous examples. […]
Asparaginase activity was measured as the concentration of asparaginase in the plasma samples as previously described (Allas et al. (2009) Blood, 114, 2033). […] The plasma asparaginase activity versus time data were analyzed using non-compartmental methods with sparse sampling in an IV bolus administration model. Activity values below the limit of quantitation of the assay (10 U/L) were set to zero in the calculation of group means. […]

[5] = PEGylated enzyme compared to the unmodified L-asparaginase; cited from earlier work
[6] = children who received the drug; cited from earlier work
[7] = 3.5 mg PA peptide/mg Crisantaspase, 10.4 mol PA peptide/mol monomer
[8] = 5 mg PA peptide/mg Crisantaspase, 11.2 mol PA peptide/mol monomer
[9] = 7.5 mg PA peptide/mg Crisantaspase, 11.7 mol PA peptide/mol monomer
[10] = 10 mg PA peptide/mg Crisantaspase, 12.0 mol PA peptide/mol monomer

Row | Molecule | Enzyme activity compared to the equally assayed non-modified Crisantaspase [1] [%] | Nessler (Average) [2] [IU/mg] | Nessler Plate 1 [2] [IU/mg] | Nessler Plate 2 [2] [IU/mg] | Nessler Plate 3 [2] [IU/mg] | apparent molecular size [3] [kDa] | other results
1 | Pyroglutamoyl-P/A(20)-aminohexanoyl-Crisantaspase [Crisantaspase/PA(20) modified protein] | 91.2 | 676 | 694 | 732 | 602 | 531 | t½ [4]: 50.2 h
2 | Pyroglutamoyl-P/A(20)-aminohexanoyl-Crisantaspase | – | – | – | – | – | – | Rel. activity [1, 7]: 94.1%; Specific activity [1, 7]: 508 ± 20 U/mg; Rel. activity [1, 8]: 80.7%; Specific activity [1, 8]: 436 ± 22 U/mg; Rel. activity [1, 9]: 74.3%; Specific activity [1, 9]: 401 ± 21 U/mg; Rel. activity [1, 10]: 47.4%; Specific activity [1, 10]: 256 ± 20 U/mg
3 | Pyroglutamoyl-P/A(40)-aminohexanoyl-Crisantaspase [Crisantaspase/PA(40) modified protein] | 78.2 | 528 | 567 | 528 | 490 | 820 | –
4 | Oncaspar®: E. coli L-asparaginase modified at multiple lysine residues using 5 kDa mPEG-succinimidyl succinate (conjugate, UniProt P00805 23-348, looked up, 5 kDa mPEG succinimidyl succinate, E. coli L-asparaginase modified at multiple lysine residues using 5 kDa mPEG-succinimidyl succinate) L-asparaginase 2: LPNITILATGGTIAGGGDSATKSNYTVGKVGVENLVNAVPQLKDIANVKGEQVVNIGSQDMNDNVWLTLAKKINTDCDKTDGFVITHGTDTMEETAYFLDLTVKCDKPVVMVGAMRPSTSMSADGPFNLYNAVVTAADKASANRGVLVVMNDTVLDGRDVTKTNTTDVATFKSVNYGPLGYIHNGKIDYQRTPARKHTSDTPFDVSKLNELPKVGIVYNYANASDLPAKALVDAGYDGIVSAGVGNGNLYKSVFDTLATAAKTGTAVVRSSRVPTGATTQDAEVDDAKYGFVASGTLNPQKARVLLQLALTQTKDPQQIQQIFNQY | – | – | – | – | – | – | in vitro activity [5]: approximately 50%; children who had an allergic reaction [6]: 30-41%
